Here are results for five molecules from patent US10520496B2 (priority 2015, dated 2019).

The target of data set [1] is Thermolysin (Bacillus thermoproteolyticus, UniProt P00800). The class given is biochemical. The conditions noted are these: for effect of zinc on measured RFU (enzymatic cleavage): zinc salt 16.7 μM, presence or absence of CaCl2 4.14 mM, vs control and NaSO4.
For data set [2], the target named is Collagenase II (Hathewaya histolytica, UniProt Q46085). The class given is biochemical, Clostridium histolyticum.
Data set [3] has as its system Neutral Protease. In kind it is biochemical, Clostridium histolyticum. The note with it: for effect of zinc on measured RFU (enzymatic cleavage): zinc salt 16.7 μM, presence or absence of CaCl2 4.14 mM, vs control and NaSO4; for Km / Vmax: neutral protease 20 μg/ml, substrate 5-80 μM, Example 2. The text has this:
GraphPad Prism (GraphPad Software 6.0, La Jolla, Calif., USA) was used for analyzing the data and generating the graphs. Both non-linear Michaelis-Menten and linear Lineweaver-Burk plots were used for the enzyme kinetics study. Kinetic parameters Vmax and Km were obtained from the Michaelis-Menten model by plotting the reaction velocity at different concentration of peptide substrate. Non-linear Michaelis-Menten curves for the enzymatic reaction in the presence and absence of CaCl2 were compared using Prism. All samples were run in duplicate, and results are reported as average±standard error of the mean (SEM). One-way or two-way ANOVA analysis followed by Tukey's multiple comparisons test was used to conduct multiple variable comparisons when applicable. Differences in data were considered significant when P values were less than 0.05.

Data set [4] has as its target Collagenase I (Hathewaya histolytica, UniProt Q9X721). In kind it is biochemical, Clostridium histolyticum. The conditions noted are these: for effect of zinc on measured RFU (enzymatic cleavage): zinc salt 16.7 μM, presence or absence of CaCl2 4.14 mM, vs control and NaSO4; for Km / Vmax: collagenase I 0.45 μg/ml.
Data set [5] addresses Botulinum neurotoxin B (Clostridium botulinum, UniProt P10844).
Data set [6] relates to proteases listed in Table 7 except thermolysin (Collagenase I Liq, Collagenase II Liq, Collagenase NB1, Collagenase I/II, Neutral Protease NB). In kind it is biochemical. The note with it: within the first hour; almost all proteases tested except thermolysin; peptide 10 μM; protease 20 μg/mL; pH 7.5.
Data set [7] has as its target dispase (Paenibacillus polymyxa, UniProt P29148). Description: Enzymes that can cleave the substrate (Table 2). The class given is biochemical. The note with it: general statement.
For data set [8] the following is noted: water.
Data set [9] has as its target chymotrypsin (Bos taurus, UniProt P00766). The class given is biochemical.
Data set [10] deals with collagenase. The data set can be described thus: Enzymes that can cleave the substrate (Table 2). In kind it is biochemical. The note with it: general statement.
The test system of data set [11] is Collagenase I/II. In kind it is biochemical. The conditions noted are these: general statement. As to the method: The cleavage sites produced by various proteases were analyzed using the known sequence of the novel protease substrate 5FAMcollagenPPT. As provided herein, the cleavage sites were determined based on the results of mass spectrometric analysis of the protease substrate 5FAMcollagenPPT peptide fragments obtained from an enzymatic reaction with various enzymes tested.
Cleavage of the novel fluorogenic protease substrate 5FAMcollagenPPT was further investigated using various proteases. After cleavage of the substrate by proteases, the resulting cleavage products of the protease substrate were specifically analyzed using matrix-assisted laser desorption/ionization (MALDI) mass spectrometry.
Next, the specific sequences of the protease substrate 5FAMcollagenPPT cleavage products were analyzed using MALDI. Briefly, each protease was incubated for 15 minutes with the protease substrate at 22° C. Buffer conditions and concentrations of the protease substrates and proteases were as described in Example 2. The uncleaved 5FAMcollagenPPT substrate has a molecular weight of 1669.8 Daltons. The molecular weights of the resulting products of the protease substrate after cleavage by various proteases are shown in Table 8 and FIG. 13.

For data set [12], the system named is trypsin. The note with it: for Enzymes that do not cleave 5FAMcollagenPPT: trypsin: general statement.
For data set [13], the target named is Botulinum neurotoxin A (Clostridium botulinum, UniProt P0DPI0).
The target in data set [14] is elastase (Sus scrofa, UniProt P00772). In kind it is biochemical.
elastase, sequence (P00772 27-266): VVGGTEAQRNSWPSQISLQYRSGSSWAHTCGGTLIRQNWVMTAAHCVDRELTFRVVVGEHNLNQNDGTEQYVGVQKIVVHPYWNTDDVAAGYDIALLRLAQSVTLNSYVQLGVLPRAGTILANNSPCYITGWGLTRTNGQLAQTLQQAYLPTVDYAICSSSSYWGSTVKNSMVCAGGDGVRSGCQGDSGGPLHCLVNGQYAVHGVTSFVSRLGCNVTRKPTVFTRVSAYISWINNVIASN
Where [15] appears, read: Example 3 (FIG. 10), thermolysin 17 μg/ml.
[16] abbreviates: enzyme 0.3125-10 μg/mL, substrate 50 μM, Example 3.
Setting [17] is: with 4.14 mM calcium, thermolysin 17 μg/ml, substrate 5-80 μM, Example 2.
The mark [18] stands for this setting: without calcium, thermolysin 17 μg/ml, substrate 5-80 μM, Example 2.
Setting [19] is: with 4.14 mM calcium, substrate 5-80 μM, Example 2.
The mark [20] stands for this setting: without calcium, substrate 5-80 μM, Example 2.
[21] abbreviates: general statement, listed as 5FAM collagenPPT.

In general, Km refers to the concentration of substrate that gives half-maximal velocity.

Values joined by “and” are separate entries in the source; they are usually repeats but may differ in a detail not shown here. Equal entries are not always repeated. “Also recorded” adds a separate entry of the source. Where two headings read alike, the source gives them in different places. *: point of attachment. 5FAM = O=C1OC2(c3ccc(O)cc3Oc3cc(O)ccc32)c2ccc(C(=O)*)cc21; DABCYL = quencher, CN(C)c1ccc(/N=N/c2ccc(C(=O)*)cc2)cc1

Thermolysin, sequence (P00800 233-548): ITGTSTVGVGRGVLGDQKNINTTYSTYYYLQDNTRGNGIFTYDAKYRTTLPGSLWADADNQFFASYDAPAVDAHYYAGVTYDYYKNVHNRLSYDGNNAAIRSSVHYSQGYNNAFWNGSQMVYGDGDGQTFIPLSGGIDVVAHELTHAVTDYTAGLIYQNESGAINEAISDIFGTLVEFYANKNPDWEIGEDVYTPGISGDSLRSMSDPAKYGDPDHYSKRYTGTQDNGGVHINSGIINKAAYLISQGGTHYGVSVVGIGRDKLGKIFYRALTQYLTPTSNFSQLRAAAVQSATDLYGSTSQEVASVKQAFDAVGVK
Collagenase I, sequence (Q9X721 111-1118): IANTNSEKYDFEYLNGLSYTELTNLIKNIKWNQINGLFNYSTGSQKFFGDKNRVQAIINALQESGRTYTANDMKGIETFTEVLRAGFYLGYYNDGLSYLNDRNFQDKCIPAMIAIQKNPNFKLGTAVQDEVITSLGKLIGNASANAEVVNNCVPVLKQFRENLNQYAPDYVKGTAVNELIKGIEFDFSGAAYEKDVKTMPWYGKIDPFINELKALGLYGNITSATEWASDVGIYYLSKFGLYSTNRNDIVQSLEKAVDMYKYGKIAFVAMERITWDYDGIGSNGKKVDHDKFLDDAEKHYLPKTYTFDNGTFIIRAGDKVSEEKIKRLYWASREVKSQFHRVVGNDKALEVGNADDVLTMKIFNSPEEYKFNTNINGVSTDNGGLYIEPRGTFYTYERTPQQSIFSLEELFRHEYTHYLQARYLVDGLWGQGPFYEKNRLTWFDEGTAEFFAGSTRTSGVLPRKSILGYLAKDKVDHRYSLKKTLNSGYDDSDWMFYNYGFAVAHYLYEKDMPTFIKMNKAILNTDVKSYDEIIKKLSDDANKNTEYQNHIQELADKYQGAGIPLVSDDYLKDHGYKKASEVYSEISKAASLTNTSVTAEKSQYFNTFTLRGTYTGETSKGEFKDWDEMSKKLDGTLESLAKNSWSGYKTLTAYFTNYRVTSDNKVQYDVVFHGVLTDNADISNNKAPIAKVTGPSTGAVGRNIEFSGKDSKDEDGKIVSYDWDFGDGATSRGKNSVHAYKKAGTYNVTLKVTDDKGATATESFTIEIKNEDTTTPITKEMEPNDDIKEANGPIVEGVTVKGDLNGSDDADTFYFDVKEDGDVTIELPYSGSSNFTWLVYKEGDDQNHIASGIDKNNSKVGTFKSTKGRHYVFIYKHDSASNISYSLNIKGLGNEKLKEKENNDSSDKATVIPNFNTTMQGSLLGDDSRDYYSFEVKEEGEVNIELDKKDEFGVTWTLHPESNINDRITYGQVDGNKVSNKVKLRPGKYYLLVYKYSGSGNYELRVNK
dispase, sequence (P29148 287-590): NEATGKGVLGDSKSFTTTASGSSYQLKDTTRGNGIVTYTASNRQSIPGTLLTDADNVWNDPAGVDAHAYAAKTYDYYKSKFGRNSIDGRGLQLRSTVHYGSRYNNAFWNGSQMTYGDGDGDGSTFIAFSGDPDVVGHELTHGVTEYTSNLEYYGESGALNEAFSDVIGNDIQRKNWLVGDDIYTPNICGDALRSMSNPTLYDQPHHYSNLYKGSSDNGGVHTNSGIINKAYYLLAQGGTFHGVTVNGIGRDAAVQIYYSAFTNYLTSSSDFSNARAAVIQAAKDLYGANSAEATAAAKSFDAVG

As to `O=S(=O)([O-])[O-].[Zn+2]` [ZnSO4, reference compound], the “effect of zinc on measured RFU (enzymatic cleavage)” value in [1] (substrate 20 μM), in [2], in data set [3] (substrate 20 μM) and in [4] (substrate 20 μM) was “significantly decreased” in each case.
As to `[Cl-].[Cl-].[Zn+2]` [ZnCl2, reference compound], the “effect of zinc on measured RFU (enzymatic cleavage)” value in [1] (substrate 20 μM), in data set [2], in data set [3] (substrate 20 μM) and in data set [4] (substrate 20 μM) was “significantly decreased” in each case.
Regarding “5-FAM-Ala-Gly-Gly-Pro-Leu-Gly-Pro-Pro-Gly-Pro-Gly-Gly-Lys-[DABCYL]-amide (5FAM-AGGPLGPPGPGGK(DABCYL)-NH2; SMILES CC(C)C[C@H](NC(=O)[C@@H]1CCCN1C(=O)CNC(=O)CNC(=O)[C@H](C)NC(=O)c1ccc2c(c1)C(=O)OC21c2ccc(O)cc2Oc2cc(O)ccc21)C(=O)NCC(=O)N1CCC[C@H]1C(=O)N1CCC[C@H]1C(=O)NCC(=O)N1CCC[C@H]1C(=O)NCC(=O)NCC(=O)N[C@@H](CCCCNC(=O)c1ccc(/N=N/c2ccc(N(C)C)cc2)cc1)C(N)=O) [5FAMcollagenPPT, novel fluorogenic FRET protease substrate]”, the Michaelis-Menten constant (Km) in [1] (setting [15]) was 34.6 µM; in [1] (setting [17]), 24.8 µM; in [1] (setting [18]), 30.4 µM; in data set [2], 29.7 µM and 24.1 µM and 24.5 µM; in [3] (with 4.14 mM calcium), 45.1 µM; in data set [3] (without calcium) it was 74.1 µM. The Km in data set [4] (Example 3 (FIG. 10)) came out at 28.2 µM; in [4] (setting [19]), 32.9 µM; in data set [4] (setting [20]) it was 38.1 µM. In addition, the Vmax is 24.6 RFU/min/μg in [1] (setting [15]); 25.47 RFU/min/μg in data set [1] (setting [17]); 23.7 RFU/min/μg in data set [1] (setting [18]); 3354.43 RFU/min/μg and 3243.942 RFU/min/μg and 5000 RFU/min/μg in data set [2]; 29.28 RFU/min/μg in data set [3] (with 4.14 mM calcium); 20.04 RFU/min/μg in data set [3] (without calcium). For the same molecule, the Vmax in data set [4] (Example 3 (FIG. 10)) came out at 909 RFU/min/μg; in data set [4] (setting [19]) it was 1008.158 RFU/min/μg; in data set [4] (setting [20]), 1704.72 RFU/min/μg. For the same molecule, the “specificity of substrate for thermolysin, dose response (FIG. 11)” value in [1] (setting [16]) is “highly specific”. The “cleavage of substrate by thermolysin (FIG. 9)” value in data set [1] (enzyme 2.5, 5, 10 μg/ml, substrate 50 μM, with and without 4.14 mM CaCl2) was “dose-dependent cleavage; also recorded: cleaved”. Further, the “Enzymes that can cleave 5FAMcollagenPPT: thermolysin” value in data set [1] (general statement) was “cleaved by thermolysin; also recorded: shown to cleave; also recorded: cleavable by thermolysin”. For the same molecule, the “effect of pH on enzymatic cleavage activity” value was “significantly inhibited” in data set [1] (pH 8.0 compared to all other pH conditions, substrate 20 μM); “significantly inhibited” in data set [2]; “significant difference” in data set [3] (between pH 7.0 and pH 8.0, substrate 20 μM); “influenced by pH except Collagenase I” in data set [4] (pH 6.8, 7.0, 7.5, 8.0, substrate 20 μM). The “Enzymes that can cleave 5FAMcollagenPPT: collagenase II (class II)” value in data set [2] is “shown to cleave; also recorded: cleaved”. Further, the “Enzymes that can cleave 5FAMcollagenPPT: Botulinum neurotoxin B” value in data set [5] was “Botulinum neurotoxin A and B”. Besides, in [6], the “cleavage of substrate over time (FIG. 12)” value is “efficient cleavage”. Besides, in [7], the “Enzymes that can cleave 5FAMcollagenPPT: dispase” value is given as “cleaved; also recorded: dispase”. Also, the “Enzymes that can cleave 5FAMcollagenPPT: collagenase I (class I)” value in data set [4] (general statement) was “shown to cleave; also recorded: cleaved”. Further, in [8], the solubility result was “water soluble”. For the same molecule, in data set [9] (setting [16]), the “cleavage of substrate by chymotrypsin, dose response (FIG. 11)” value is recorded as “do not cleave”. The “Enzymes that do not cleave 5FAMcollagenPPT: chymotrypsin” value in [9] (setting [21]) was “chymotrypsin”. Moreover, the “Enzymes that can cleave 5FAMcollagenPPT: collagenase” value in [10] is listed as “collagenase-specific”. The “Enzymes that can cleave 5FAMcollagenPPT: class I/II collagenase” value in [11] was “cleaved”. In [12] (setting [16]), the “cleavage of substrate by trypsin, dose response (FIG. 11)” value is recorded as “do not cleave”. Besides, the “cleavage of substrate by trypsin (FIG. 9)” value in data set [12] (enzyme 2.5, 5, 10 μg/ml, substrate 50 μM, with and without 4.14 mM CaCl2, compared to thermolysin) is listed as “significantly diminished reactivity; also recorded: not cleaved”. For the same molecule, the “Enzymes that do not cleave 5FAMcollagenPPT: trypsin” value is “not degraded; also recorded: resistant to trypsin; also recorded: resistant to cleavage” in [12] and “trypsin” in data set [12] (listed as 5FAM collagenPPT). In addition, in data set [13], the “Enzymes that can cleave 5FAMcollagenPPT: Botulinum neurotoxin A” value is “Botulinum neurotoxin A and B”. Further, in [14] (setting [16]), the “cleavage of substrate by elastase, dose response (FIG. 11)” value is given as “do not cleave”. For the same molecule, in [14] (setting [21]), the “Enzymes that do not cleave 5FAMcollagenPPT: elastase” value is recorded as “elastase”.
For the molecule `O=C(O)CN(CCOCCOCCN(CC(=O)O)CC(=O)O)CC(=O)O` [EGTA, ethylene glycol-bis(β-aminoethyl ether)-N,N,N′,N′-tetraacetic acid, reference compound], the “effect of EGTA on RFU levels vs controls” value is on record as “significant differences” in [1] (EGTA 25, 50, 100 mM, thermolysin 17 μg/ml, substrate 20 μM) and “significant differences” in data set [2].
Regarding `[Ca+2].[Cl-].[Cl-]` [CaCl2, reference compound], the “effect of CaCl2 on the cleavage reaction (Michaelis-Menten curves)” value is on record as “did not change significantly” in [1] (CaCl2 4.14 mM, Thermolysin 17 μg/ml, substrate 5FAMcollagenPPT 5-80 μM); “did not change significantly” in data set [2]; “significantly enhanced” in [3] (CaCl2 4.14 mM, Neutral Protease 20 μg/ml, substrate 5FAMcollagenPPT 5-80 μM); “significantly enhanced” in [4] (CaCl2 4.14 mM, Collagenase I 0.45 μg/ml, substrate 5FAMcollagenPPT 5-80 μM).
